This note sets out measurements from a protein production outcome set (Wang et al. 2014).
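Also: failed if final PepcDB status was selected cloned or expressed and not failed if soluble or beyond.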

The series is described as follows: label from the status in PepcDB records.
With “MNTGTAVITGASSGLGLQCARALLRRDASWHVVLAVRDPARGRAAMEELGEPNRCSVLEVDLASVRSVRSFVETVRTTPLPPIRALVCNAGLQVVSGIAFTDDGVEMTFGVNHLGHFALVTGILDWLARPARIVVVSSGTHDPSKHTGMPDPRYTCAADLAHPPTDQNTPAEGRRRYTTSKLCNVLFTYELDRRLDHGEQGVMVNAFDPGLMPGSGLARDYPPILRLAYRLLSPMLRVLPFVHSTRVSGEHLAALAVDPRFAGVTGQYFAGAKAIRSSAESYDRAKALDLWETSERLLAQVT”, the protein production result is on record as “failed”.
As to “MTDNTRLRIAMQKSGRLSDDSRELLARCGIKINLHTQRLIAMAENMPIDILRVRDDDIPGLVMDGVVDLGIIGENVLEEELLNRRAQGEDPRYFTLRRLDFGGCRLSLATPVDEAWDGPLSLNGKRIATSYPHLLKRYLDQKGISFKSCLLNGSVEVAPRAGLADAICDLVSTGATLEANGLREVEVIYRSKACLIQRDGEMEESKQQLIDKLLTRIQGVIQARESKYIMMHAPTERLDEVIALLPGAERPTILPLAGDQQRVAMHMVSSETLFWETMEKLKALGASSILVLPIEKMME”, the protein production result was “not failed”.
On to “MGSSHHHHHHSSGRENLYFQGMNIGRLRDRITIQTLKQTRDITGEILETWEDGHTLWASVNMVSSKEAISSGAELAIGTVRIWIRYRKDINATSRIKVSTGPLAGRVLNIIGQPLPDAARTRLEILCREGAEK”, for which the protein production entry was “not failed”.
For “MSRAALGIRSSWVGFVAAATTAMASTIAPVAYAQVAHHVPNDGCSAVEVAVVGGTTQANIHDDPHDVYSFGKGTNFAVNMTRRFHNVTAWQLPYYSSAGITASNNDAEQKEFPPYAVSKNRGVDVLDAHLSDQAVKCPDTQFVIAGFSQGADIAGDMAERISRGKTNPALTPERVLGVYLLADPGRSDLPMNPTQGQTTTGKSGPLTDNGAVLIETNLGLPGAGSVGIAGPRAAGAFSNLPGKVRSICSSGDPACAVHPKGLLASVGKWANDQNDFEHVPVESVRTMMLNGSFFISLAPHMNKIRGDLYASDPVALKQHFDDASMHPRLTQPERNTLHLVGAEIAGLMGHLKQGRDQVAVGSSDTGLSSGGPRDRLIALEKIVQQQTGLVELQLAVGLMIVHLSYTGDSREVSTVGAQRADDWIDSDMTQLISGYLNTLSVRAPYVTLGERHTFIQKMGWPIWWIVSSIWGQRNHAARGVWEFFGL”, the protein production result is on record as “failed”.
On to “MYPYIKLIATLFRAKNSPQMNLDEKSVLNCRAGLTDIDVFVELNNARHLTYMEFGRWDFAQRTGLLSLMRKNKWAFAVGGASVRYRRRIAFWKKFTVTTQVICHDGRWFYFLQETHIKDKVCSSALIKAAFTSKQGLVPATEVLAAYGKTTPNFDVPDWVNAWIDAESQRPWPLEHHHHHH”, for which the protein production result is reported as “not failed”.
Turning to “MKKILILFFLLFTVNAFTQNYADYMSSGLDAYARSDWSSALFSFQKAMEVSKNSLDEPLYWLIMANASARNYTVALNDIETFLKRFPNSSKAAEVIYQQGRICCLSAKHDQSINILYGFLRKYPNHRQTASAYYWIGENLYMVGRLKDARTIFSRVIIDYPSSAKVEPSRYKIALIDQASTQDELLKLLKISHEELLKLSEESEKNKKIYEQTIAAYQRQSSDAGGDMRIAELSEQLKMERKHNEELHDQLVMLELKNQELLATLAKMDAKYTSEMAADGETPAADYSDPKAKRAAIEALIKKAKILQSMYNQLLEGNGQ”, the protein production result is recorded as “failed”.
Regarding “MCDFISHNKQLFDELDIFIDSLATKEGALIQVLHEAQGIFGYLPKEVQLHVARKLGVAPAKVYGVVTFYSYFTTEPVGKYKISVCLGTVCFVKGADKILSAFEKQLGIKVGETTSDFKFSLEGLRCLGACGLAPVVTVNGKVYGKVKPDQVSEILDTYRELELNC”, the protein production result is “failed”.
In the case of “MAPRYDTLFYDGSCPLCAREIRTLRRLQTGNLIFADIHEQNPSNQQLPSREQLLRRLHLMSWNGEWVTGLHANVRAWSHTRFGWLFKPLLWPVIHPIASRIYETWADKRYGRKYACAMGHENSCPPGT”, the protein production result was “failed”.
“MNWVAPIKDQETLKNFGETLKQVDYKYYIMFELGVGTGLQLQDILAFKNKDVTGKKEIEVTIGTRNMKNVFTVPEELQQIINEYTKGKDPEAYLILGHSSSNKPVSREQAYRVLRSAGHKIGLNSIGAQTMRKTYAWNYYKETGDIYHLQKLFNHASPSITYRFIGEKPNIEVFLKKMTPQENERSRYLLYLNDNGKKKLNKIIDILTGIRDNFDSPANNDAFYGKVDCLLQELEALMENYENTK”: the protein production result is on record as “failed”.
With “AIDVSAKSAIIIDGASGRVLYAKDEHQKRRIASITKIMTAVLAIESGKMDQTVTVSANAVRTEGSAIYLTEGQKVKLKDLVYGLMLRSGNDAAVAIAEHVGGSLDGFVYMMNQKAEQLGMKNTRFQNPHGLDDHENHYSTAYDMAILTKYAMKLKDYQKISGTKIYKAETMESVWKNKNKLLTMLYPYSTGGKTGYTKLAKRTLVSTASKDGIDLIAVTINDPNDWDDHMKMFNYVFEHYQTYLIAKKGDIPKLKGTFYESKAFIKRDITYLLTEEEKENVKINTTLLKPKKAWEKDASKIPDIVGHMEIMFNDATIAKVPIYYENERHQK”, the protein production result was “not failed”.
As to “MASRSRRPERRQEPLSRERIVGAAVELLDTVGERGLTFRALAERLATGPGAIYWHITGKAELLGAATDAVVTAAVTAGPTGAADSPQDAVRAVALGLWDATEAHPWLATQLATQLSRTPWGTVAPRIFESLGRQVQAMGVPEAHWFTASSALMHYILGAAGQNAANSASAGPVGADVDRDEFLDTVSTAWEGLDPDAYPFTRAVADQVRGHDDREQFLAGITLVLTGITALHRPGR”, the protein production entry is given as “not failed”.
The value for “MQLSHRPAETGDLETVAGFPQDRDELFYCYPKAIWPFSVAQLAAAIAERRGSTVAVHDGQVLGFANFYQWQHGDFCALGNMMVAPAARGLGVARYLIGVMENLAREQYKARLMKISCFNANAAGLLLYTQLGYQPRAIAERHDPDGRRVALIQMDKPLEP” was “not failed”; that for “MAKPVLVRNTEEMMMNLDFPTYIKVAELGCSSGQNSFLAIFEIINTINVLCQHVNKNSPEIDCCLNDLPENDFNTTFKFVPFFNKELMITNKSSCFVYGAPGSFYSRLFSRNSLHLIHSSYALHWLSKVPEKLENNKGNLYITSSSPQSAYKAYLNQFQKDFTMFLRLRSEEIVSNGRMVLTFIGRNTLNDPLYRDCCHFWTLLSNSLRDLVFEGLVSESKLDAFNMPFYDPNVQELKEVIQKEGSFEINELESHGFDLGHYYEEDDFEAGRNEANGIRAVSEPMLIAHFGEEIIDTLFDKYAYHVTQHANCRNKTTVSLVVSLTKK” was “failed”.
“DKMDGAPSRVLHIRKLPGEVTETEVIALGLPFGKVTNILMLKGKNQAFLELATEEAAITMVNYYSAVTPHLRNQPIYIQYSNHKELKT”: the protein production entry was “not failed”.
For “MCIAIPGKMTAIVDENTATIDMGGICRDVNMALMGGAEESMIGKHFLVHVGYAISEISEEESEETMRLLKIMAGLEEIDSFENESQ”, the protein production result was “failed”.
“EMTLVTLRSNDQFNTTIYGFSDRLRGLEGPRNVLLMNPEEIARHGLHEGQRVTLECAWSDGVDRRVSGLRVTAYDLPDSCVGAYYPETNPLVPLAARDELSGTPAYKGTPVRVRAEGSAAPL”: the protein production entry is “failed”.
For “MRHITTHDAPATGLRSIADTSWHVRGACHGMDIEDADAVFFPGPRDHEEIAEAKELCGWCPVRRACLDFALENVLKEGVWGGLTEAERRPL”, the protein production result was “failed”.
As to “MRIFIAFEGSFEAFDVAAHTSVGAIKQMVKDYFHIPLSEDKQGRWYLELTYAGAALKNNWSLSDVGISFCSTLKCFVKKEDKPTLYVFNAVTQETMAIKENMSILDRKVSDLRMLVTLSCGFPVSVYCLRTPAGLEMYDCNTLKDYQTDIGTTLRLDVWDGWKEFLMGCLLGQKPKVQRYLSKEGPVLKYQKRVALYIAAFHGHTELTEWALKQGAQPHEAVGVHPCRAWCHEALHTDVSNCPIHAAAEAGQLLILKAFVNFSVLCLECKNAAGQSPLAIASKHQHKDCVLYLLSKIWSTVSFLKLSVPMRIYIKIKQWILRAQTRRCHKSQPSRARVSGAKVGDTVMVDGFTKPKMTSKSWYKAEDKSWHTAQSKLPPCKQQPSRKPIGSLPMSQHDTKKQIFTFPSLVDAKNFSEVQSYQQENQKKIAAPARKEKNIKNPYLPQVPLPPVSRVHYAHPQFYCTPPSGDCLLRSLFKSFSEHSGRTPRENAIYCLAVASAFKEKRWLQQLEIARVLAKRSISNLTVKGGPAKCENYPESVL”, the protein production entry is given as “failed”.
In the case of “EIKIGITMSASGPGAALGQPQSKTVAALPKEIGGEKVTYFALDDESDPTKAAQNARKLLSEEKVDVLIGSSLTPVSLPLIDIAAEAKTPLMTMAAAAILVAPMDERRKWVYKVVPNDDIMAEAIGKYIAKTGAKKVGYIGFSDAYGEGYYKVLAAAAPKLGFELTTHEVYARSDASVTGQVLKIIATKPDAVFIASAGTPAVLPQKALRERGFKGAIYQTHGVATEEFIKLGGKDVEGAIFAGEAFSGAEDMPADSPFRKVKARFVDAYKAANGGAAPTIFGVHLWDSMTLVENAIPAALKAAKPGTPEFRAAIRDQIEKSKDLALNNGLSNMTPDNHNGYDERSAFLIEIRDGAFRLKQ”, the protein production result is “not failed”.
The value for “MAVMARHESYYGNTKPAKLNEEKVTRVRFYLHDTLSGQNPTAVRIAHANLTGGSASPVGFGSLFVIDDPLTVGPEKHSKEIGNGQGMYVSGCKDLSKFTIVMYADLAFTAGKFNGSSISIFSRNPVAEEVGEREIAIVGGRGKFRMARGFVKVKTNKIDMKTGDAVLRYDATVYHY” was “failed”.
As for “MGSSHHHHHHSSGRENLYFQGMLLHSVQTPRGEILNVSEQEARDVFGASEQAIADARKATILQTLRIERDERLRACDWTQVQDVVLTADQKATWAKYRQALRDLPETVTDLSQIVWPQLPV”, the protein production result is recorded as “not failed”.
“TVEEVIEETPEKSELELANERADEFENKYLRAHAEMQNIQRRSSEERQQLQRYRSQDLAKAILPSLDNLERALAVEGLTDDVKKGLEMTRDSLIQALKEEG”: the protein production result is given as “not failed”.
In the case of “MGGITMTAVVSNRDKINFHEVADHYHSNKIIFGIKFLKNWALERLASCAPVPSWRAKLHKMRGVNIGENVYIGYDVIFDRIHPEMITVGDYAEIGDRCILSAHSRGSLTTRQAYPRSIAPIKIGRGVSVNPGCIITQGVEIGDNSIIGVGSVVSRNISPNSLALGYPAKVIKKLDGLEHHHHHH”, the protein production entry is reported as “not failed”.
On to “MITLQKAEASDLEKIIAIQRASFKAVYEKYHDQYDPYVEEVEQIRWKLVERPDCFYHFVLVDETIVGFLRLVIKDEEKRAWLGTAAILPQYQGQGYGSAAMALLEKTYPKLTKWDLCTIAQEKLMVSFYEKCGYHSTHTEPEQEGMDMVYMTKKIE”, for which the protein production entry is recorded as “failed”.
With “MSLRTLVAGVDTSTQSCKVRVTDAETGELVRFGQAKHPNGTSVDPSYWWSAFQEAAEQAGGLDDVSALAVGGQQHGMVILDNQGNVIRDAMLWNDTSSAPQAAALIEKLGAAPAQDGEPEDPIARGKQRWVKAVGSSPVASYTLTKVAWVAENEPENVKKIAAICLPHDWLSWRIAGYGPVAEGEDAHLEALFTDRSDASGTIYYDAASNEYRRDLIAMVLEAAEGAKAAQSHAEAIVLPTVLGPRDAAPVKADPAIAGKNVEGGCLLAPGGGDNAMASLGLGMAVGDVSISLGTSGVAAAISENPTYDLTGAVSGFADCTGHYLPLACTINGSRILDAGRAALGVDYDELAKLAFASKPGANGITLVPYFDGERTPNRPNATATFSGMTLANTTRENLARAFVEGLLCSQRDCLELIRSLGASITRILLIGGGAKSEAIRTLAPSILGMDVTRPATDEYVAIGAARQAAWVLSGETEPPAWQLTIDGVETGEPTEAVYEAYAKARGEGHHHHHH”, the protein production result was “not failed”.
